Results reported in US20200231693A1 (Janssen / Centocor, published 2020).

Assays:
human OX40 (CD134) = biological target: T1, human OX40 (CD134) (human, UniProt P43489 29-277); experiment: NanoBRET PPI assay on HEK-Blue: OX40 cells (discussion)
T1 construct: also called HEK-Blue: OX40 cells; transfected OX40 receptor
T1 sequence: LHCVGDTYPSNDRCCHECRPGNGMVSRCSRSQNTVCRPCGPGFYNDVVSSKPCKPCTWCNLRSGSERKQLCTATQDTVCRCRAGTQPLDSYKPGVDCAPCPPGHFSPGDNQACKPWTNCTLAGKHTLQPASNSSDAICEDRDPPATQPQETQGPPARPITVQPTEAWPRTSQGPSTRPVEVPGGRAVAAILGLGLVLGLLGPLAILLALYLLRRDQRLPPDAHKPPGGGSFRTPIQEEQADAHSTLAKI
Method: The next day, equal concentrations of Nanoluc-tagged antibody (donor) and Halotag-tagged antibody (acceptor) in 50 μl assay medium (Opti-MEM I reduced serum medium, no phenol red plus 4% FBS) were applied to the cells. Halotag 618 ligand diluted 1:1000 in 50 μl assay medium were added in experimental well, and a no ligand control well was also set up by diluting DMSO 1:1000 in assay medium. After incubation at 37° C. for 30 min, the cells were washed twice with assay medium and resuspended in 100 μl assay medium. 25 μl Nano-Glo substrate, diluted 1:200 in assay medium without FBS, was added to each well. After shaking for 30 seconds, the donor emission (460 nm) and acceptor emission (618 nm) were measured by Envision. Raw NanoBRET ratio values with milliBRET units (mBU) were calculated as RawBRET=618 nmEm/460 nmEm*1000. To factor in donor-contributed background or bleed through, Corrected NanoBRET ratio values with milliBRET units was calculated as CorrectedBRET=RawBRETₑₓₚₑᵣᵢₘₑₙₜₐₗ sample−RawBRET_{no-ligand control sample}, which reflects energy transfer from a bioluminescent protein donor to a fluorescent protein acceptor due to protein-protein interactions.
To evaluate whether the engineered antibodies multimerize upon binding antigens at the cell surface a NanoBRET™ protein-protein interaction (PPI) assay was conducted. This assay is a proximity-based assay that detects protein-protein interactions by measuring energy transfer from a bioluminescent protein donor to a fluorescent protein acceptor. […] NanoBRET PPI assays were performed by applying the donor and acceptor antibodies to HEK-Blue: OX40 cells and the calculated corrected NanoBRET ratios reflect the association of multimerized antibody.

FcγRIIB on Raji cells = biological target: T2, FcγRIIB on Raji cells (human, UniProt P31994 43-310); experiment: cell-based or functional assay
T2 sequence (looked up): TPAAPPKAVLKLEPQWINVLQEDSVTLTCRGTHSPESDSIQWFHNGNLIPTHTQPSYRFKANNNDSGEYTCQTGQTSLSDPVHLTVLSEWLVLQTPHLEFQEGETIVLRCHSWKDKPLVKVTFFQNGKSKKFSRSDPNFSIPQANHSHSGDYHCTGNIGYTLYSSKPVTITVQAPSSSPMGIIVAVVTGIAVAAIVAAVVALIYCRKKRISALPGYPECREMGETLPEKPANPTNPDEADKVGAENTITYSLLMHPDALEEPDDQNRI

[1] = biological target: the molecule itself; experiment: SEC, self-association in solution
human FcγRI (NM_000566) = human FcγRI (NM_000566) (human, UniProt P12314 16-374); experiment: flow cytometry on Expi293F cells transfected with FcγRI
Sequence of human FcγRI (NM_000566) (P12314 16-374 limits assumed): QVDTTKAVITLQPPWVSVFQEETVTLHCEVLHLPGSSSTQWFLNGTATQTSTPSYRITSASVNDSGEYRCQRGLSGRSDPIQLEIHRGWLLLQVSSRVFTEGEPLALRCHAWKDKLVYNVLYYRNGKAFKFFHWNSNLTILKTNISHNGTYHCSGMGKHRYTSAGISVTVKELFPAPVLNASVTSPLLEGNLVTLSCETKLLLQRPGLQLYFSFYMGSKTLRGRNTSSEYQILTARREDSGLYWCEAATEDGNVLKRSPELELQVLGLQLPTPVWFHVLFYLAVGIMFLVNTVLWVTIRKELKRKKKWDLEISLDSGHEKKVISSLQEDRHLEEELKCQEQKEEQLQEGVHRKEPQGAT
Method: (§1) Plasmids expressing cDNAs encoding human FcγRI (NM_000566) (SEQ ID NO: 59), FcγRIIA (NM_021642) (SEQ ID NO: 60), FcγRIIB (NM_004001) (SEQ ID NO: 61), and FcγRIIIA (NM_000569) (SEQ ID NO: 62) (Origene) were transiently transfected into Expi293F cells by Expifectmine293 transfection kit (Life Technologies). Flow cytometry assays were performed 48 h after transfection.
(§2) 2×10⁵ cells per well were seeded in 96-well plate and blocked in BSA Stain Buffer (BD Biosciences, San Jose, USA) for 30 min at 4° C. Cells were incubated with test antibody on ice for 1.5 hour at 4° C. After being washed twice with BSA stain buffer, the cells were incubated with R-PE labeled anti-human or anti-mouse IgG secondary antibody (Jackson Immunoresearch Laboratories) for 45 min at 4° C. […] PE and DRAQ7 signals of the stained cells were detected by Miltenyi MACSQuant flow cytometer (Miltenyi Biotec, Auburn, USA) using B2 and B4 channel respectively. Live cells were gated on DRAQ7 exclusion and the geometric mean fluorescence signals were determined for at least 10,000 live events collected. […] Data was plotted as the logarithm of antibody concentration versus mean fluorescence signals. Nonlinear regression analysis was performed by GraphPad Prism 6 (GraphPad Software, Inc.) and EC₅₀ values were calculated.

[2] = biological target: human FcγRIIIA (NM_000569) (human, UniProt P08637 17-254); experiment: flow cytometry on Expi293F cells transfected with FcγRIIIA
Sequence of human FcγRIIIA (NM_000569) (P08637 17-254 limits assumed): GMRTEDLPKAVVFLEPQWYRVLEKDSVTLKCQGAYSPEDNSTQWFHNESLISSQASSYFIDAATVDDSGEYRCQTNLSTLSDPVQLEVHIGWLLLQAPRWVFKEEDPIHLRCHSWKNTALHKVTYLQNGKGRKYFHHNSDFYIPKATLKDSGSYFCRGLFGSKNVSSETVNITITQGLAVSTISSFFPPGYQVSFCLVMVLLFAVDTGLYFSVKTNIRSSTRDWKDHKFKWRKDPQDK
Method: as §1
(§3) 2×10⁵ cells per well were seeded in 96-well plate and blocked in BSA Stain Buffer (BD Biosciences, San Jose, USA) for 30 min at 4° C. Cells were incubated with test antibody on ice for 1.5 hour at 4° C. After being washed twice with BSA stain buffer, the cells were incubated with R-PE labeled anti-human or anti-mouse IgG secondary antibody (Jackson Immunoresearch Laboratories) for 45 min at 4° C. The cells were washed twice in stain buffer and then resuspended in 150 μL of Stain Buffer containing 1:200 diluted DRAQ7 live/dead stain (Cell Signaling Technology, Danvers, USA). PE and DRAQ7 signals of the stained cells were detected by Miltenyi MACSQuant flow cytometer (Miltenyi Biotec, Auburn, USA) using B2 and B4 channel respectively. Live cells were gated on DRAQ7 exclusion and the geometric mean fluorescence signals were determined for at least 10,000 live events collected. FlowJo software (Tree Star) was used for analysis. Data was plotted as the logarithm of antibody concentration versus mean fluorescence signals. Nonlinear regression analysis was performed by GraphPad Prism 6 (GraphPad Software, Inc.) and EC₅₀ values were calculated.

[3] = biological target: T3, human FcγRIIB (NM_004001) (human, UniProt P31994 43-310); experiment: binding to transfected Expi293F cells (data not shown)
T3 construct: also called FcγRIIB expressed on transfected Expi293F cells
T3 sequence: T2 sequence (looked up)

[4] = biological target: T3, human FcγRIIB (NM_004001); experiment: flow cytometry on Expi293F cells transfected with FcγRIIB
Method: as §1, §3

[5] = biological target: T4, human FcγRIIA (NM_021642) (human, UniProt P12318 36-317); experiment: flow cytometry on Expi293F cells transfected with FcγRIIA (R131 allotype per text)
T4 construct: also called FcγRIIA^R131; R131 allotype of FcγRIIA
T4 sequence: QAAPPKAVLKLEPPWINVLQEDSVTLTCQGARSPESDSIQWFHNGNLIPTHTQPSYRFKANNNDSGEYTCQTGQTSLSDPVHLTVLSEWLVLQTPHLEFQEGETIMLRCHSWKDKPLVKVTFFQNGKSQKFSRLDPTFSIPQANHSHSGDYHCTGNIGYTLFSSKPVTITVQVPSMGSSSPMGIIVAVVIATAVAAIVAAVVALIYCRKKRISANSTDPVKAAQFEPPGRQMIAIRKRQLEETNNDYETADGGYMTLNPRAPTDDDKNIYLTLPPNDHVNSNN
Method: as §1, §2

B1: OX40SF2IgG1E345R/E430G (antibody)
heavy: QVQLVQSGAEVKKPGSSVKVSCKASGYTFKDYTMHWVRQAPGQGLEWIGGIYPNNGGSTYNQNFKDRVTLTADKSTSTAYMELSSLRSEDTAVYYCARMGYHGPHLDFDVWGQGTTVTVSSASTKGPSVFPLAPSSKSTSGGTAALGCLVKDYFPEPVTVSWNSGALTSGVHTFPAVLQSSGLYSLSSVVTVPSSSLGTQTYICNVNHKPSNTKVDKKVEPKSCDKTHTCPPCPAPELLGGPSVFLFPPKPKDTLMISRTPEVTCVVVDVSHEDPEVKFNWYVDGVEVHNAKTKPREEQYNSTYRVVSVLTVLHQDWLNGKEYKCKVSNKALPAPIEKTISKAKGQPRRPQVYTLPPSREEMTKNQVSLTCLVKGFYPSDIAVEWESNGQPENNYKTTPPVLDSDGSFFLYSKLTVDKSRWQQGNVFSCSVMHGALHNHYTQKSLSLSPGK
VL: DIQMTQSPSSLSASVGDRVTITCKASQDVGAAVAWYQQKPGKAPKLLIYWASTRHTGVPSRFSGSGSGTDFTLTISSLQPEDFATYYCQQYINYPLTFGGGTKVEIK
notes: Full IgG1; In the NanoBRET assay the light chains carried a C-terminal Nanoluc or HaloTag
B1: binds (human OX40 (CD134)).

B2: OX40SF2IgG1E345R (antibody)
heavy: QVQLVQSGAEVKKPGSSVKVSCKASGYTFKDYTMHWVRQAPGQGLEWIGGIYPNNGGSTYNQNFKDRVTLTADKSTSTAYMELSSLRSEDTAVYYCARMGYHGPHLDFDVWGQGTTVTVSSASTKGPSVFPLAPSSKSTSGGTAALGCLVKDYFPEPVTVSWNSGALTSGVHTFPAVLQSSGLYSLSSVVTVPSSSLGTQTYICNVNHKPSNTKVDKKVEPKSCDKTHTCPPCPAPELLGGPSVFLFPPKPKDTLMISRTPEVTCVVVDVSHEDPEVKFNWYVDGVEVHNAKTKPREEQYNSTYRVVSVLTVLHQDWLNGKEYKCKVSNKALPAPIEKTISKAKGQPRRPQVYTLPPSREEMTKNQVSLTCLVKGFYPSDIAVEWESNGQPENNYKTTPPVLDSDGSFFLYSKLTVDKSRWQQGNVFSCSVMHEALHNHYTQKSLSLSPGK
VL: B1 VL
notes: as for B1
With B2 the “HEK-Blue NFκB reporter assay, co-culture with Raji cells against no Raji cells” value (FcγRIIB on Raji cells) was over 2 fold and the binding result (human OX40 (CD134)) was “binds”.

B3: OX40SF2IgG1E430G (antibody)
heavy: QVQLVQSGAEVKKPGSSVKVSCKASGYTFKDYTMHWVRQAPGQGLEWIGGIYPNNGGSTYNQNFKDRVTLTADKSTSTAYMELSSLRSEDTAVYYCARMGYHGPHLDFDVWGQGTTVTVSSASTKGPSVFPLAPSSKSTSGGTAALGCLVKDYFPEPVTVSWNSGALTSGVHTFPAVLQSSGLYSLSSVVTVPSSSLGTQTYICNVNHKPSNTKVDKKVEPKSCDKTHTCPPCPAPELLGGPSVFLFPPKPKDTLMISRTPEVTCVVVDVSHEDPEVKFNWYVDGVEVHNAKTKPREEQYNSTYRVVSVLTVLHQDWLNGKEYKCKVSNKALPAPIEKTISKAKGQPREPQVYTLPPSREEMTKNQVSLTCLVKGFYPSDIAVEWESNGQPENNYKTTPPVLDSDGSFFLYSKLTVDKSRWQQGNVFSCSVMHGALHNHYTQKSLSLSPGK
VL: B1 VL
notes: as for B1
B3: binds (human OX40 (CD134)).

B4: OX40SF2IgG1 (antibody)
heavy: not shown
VL: B1 VL
notes: Full IgG1, wild-type Fc; also called SF2 antibody with native human IgG1 Fc; wild-type IgG1
With B4 the binding result [1] was “no binding”, the EC50 (human FcγRI (NM_000566)) was 0.326 µg/mL and the EC50 [2] was 0.744 µg/mL.

B5: OX40SF2IgG1E345R/E430G/S440Y (antibody)
heavy: QVQLVQSGAEVKKPGSSVKVSCKASGYTFKDYTMHWVRQAPGQGLEWIGGIYPNNGGSTYNQNFKDRVTLTADKSTSTAYMELSSLRSEDTAVYYCARMGYHGPHLDFDVWGQGTTVTVSSASTKGPSVFPLAPSSKSTSGGTAALGCLVKDYFPEPVTVSWNSGALTSGVHTFPAVLQSSGLYSLSSVVTVPSSSLGTQTYICNVNHKPSNTKVDKKVEPKSCDKTHTCPPCPAPELLGGPSVFLFPPKPKDTLMISRTPEVTCVVVDVSHEDPEVKFNWYVDGVEVHNAKTKPREEQYNSTYRVVSVLTVLHQDWLNGKEYKCKVSNKALPAPIEKTISKAKGQPRRPQVYTLPPSREEMTKNQVSLTCLVKGFYPSDIAVEWESNGQPENNYKTTPPVLDSDGSFFLYSKLTVDKSRWQQGNVFSCSVMHGALHNHYTQKYLSLSPGK
VL: B1 VL
notes: In the NanoBRET assay the light chains carried a C-terminal Nanoluc or HaloTag; also called OX40SF2E345R/E430G/S440Y
B5: binds [1]; binds [3].

B6: OX40SF2IgG1S267E/L328F (antibody, name in EU numbering)
heavy: not shown
VL: B1 VL
notes: Full IgG1; Positions are EU Index, not positions on the UniProt entry
With B6 the “HEK-Blue NFκB reporter assay, co-culture with Raji cells; efficacy at 1000 ng/ml against OX40 ligand at the same concentration” value (FcγRIIB on Raji cells) was over 2 fold, the EC50 [4] was 0.459 µg/mL and the binding result [2] was “no binding (tested: 1 ng/ml to 10000 ng/ml)”. The EC50 [5] was 0.216 µg/mL and the “fold better potency (against OX40SF2IgG1, reference implied)” value [5] was 20 fold.

B7: OX40SF2IgG1V12 (antibody, name in EU numbering)
heavy: QVQLVQSGAEVKKPGSSVKVSCKASGYTFKDYTMHWVRQAPGQGLEWIGGIYPNNGGSTYNQNFKDRVTLTADKSTSTAYMELSSLRSEDTAVYYCARMGYHGPHLDFDVWGQGTTVTVSSASTKGPSVFPLAPSSKSTSGGTAALGCLVKDYFPEPVTVSWNSGALTSGVHTFPAVLQSSGLYSLSSVVTVPSSSLGTQTYICNVNHKPSNTKVDKKVEPKSCDKTHTCPPCPAPDLLGDDSVFLFPPKPKDTLMISRTPEVTCVVVDVSDEDGEVKFNWYVDGVEVHNAKTKPREEQYNSTYRVVSVLTVLHQDWLNGKEYKCKVSNKALPRPIEKTISKAKGQPREPQVYTLPPSRDELTKNQVSLTCLVKGFYPSDIAVEWESNGQPENNYKTTPPVLDSDGSFFLYSKLTVDKSRWQQGNVFSCSVMHEALHNHYTQKSLSLSPGK
VL: B1 VL
notes: Full IgG1; Positions are EU Index
In the case of B7, the “HEK-Blue NFκB reporter assay, co-culture with Raji cells; efficacy at 1000 ng/ml against OX40 ligand at the same concentration” value (FcγRIIB on Raji cells) is reported as over 2 fold, the EC50 [4] is reported as 0.502 µg/mL and the binding result [2] is reported as “no binding (tested: 1 ng/ml to 10000 ng/ml)”.

B8: anti-FcγRIIB antibody 2B6 (antibody)
chain 1: QVQLQQPVTELVRPGASVMLSCKASDYPFTNYWIHWVKQRPGQGLEWIGVIDPSDTYPNYNKKFKGKATLTVVVSSSTAYMQLSSLTSDDSAVYYCARNGDSDYYSGMDYWGQGTSVTVSS
chain 2: DILLTQSPAILSVSPGERVSFSCRTSQSIGTNIHWYQQRTNGFPRLLIKNVSESISGIPSRFSGSGSGTDFILSINSVESEDIADYYCQQSNTWPFTFGGGTKLEIK
Work on B8 yielded an EC50 [4] of 0.431 µg/mL.
